Where no end group is shown, it is not given here. The star is where a group is joined. Biotin = O=C1N[C@H]2[C@H](CS[C@H]2CCCCC(=O)*)N1
B1: BKT130 biotinylated synthetic peptide (peptide)
peptide: SIPSHSIHSAKAGGGSK(Biotin)G
modifications: also: biotin at C-terminus, format X12GGGSK-biotin-G
notes: BKT130 peptide; C-terminal tail of the linear peptide format X12GGGSK-biotin-G; also called BTK130; source: synthetic peptide (Weizmann Institute of Science)
B2: BKT120 biotinylated synthetic peptide (peptide)
peptide: LDYPIPQTVLHHGGGSK(Biotin)G
modifications: also: biotin at C-terminus, format X12GGGSK-biotin-G
notes: BKT120 peptide; C-terminal tail of the linear peptide format X12GGGSK-biotin-G; also called BTK120; source: synthetic peptide (Weizmann Institute of Science)

Molecular target: T1, CCL2 (human, UniProt P13500 24-99)
T1 construct: CCL2, human, recombinant; source: bought: PeproTech
Assay: ELISA; chemokine coated on maxisorp plates (0.1-1.0 µg/ml in 0.1 M NaHCO3, pH 8.6), BSA block, biotinylated synthetic peptides in TBST-BSA for 45 min at RT, detected with HRP-streptavidin or AP-anti-biotin; fold binding at 10 and 100 ng/ml peptide
Conditions: both partners purified

T1 sequence (P13500 24-99): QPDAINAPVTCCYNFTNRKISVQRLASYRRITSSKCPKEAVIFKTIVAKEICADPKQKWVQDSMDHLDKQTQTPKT

| Binder | binding result |
| --- | --- |
| B1 | binds |
| B2 | binds |
